System: MS2 coat protein
Experiment: apparent KD of MS2 coat protein; higher = weaker reporter binding
Conditions: Eterna round: R107
Method: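 RNA-MaP round R107: designed RNA switches with theophylline, tryptophan, arginine or FMN aptamers are transcribed on-chip within common flanks. They are titrated with SNAP-549-labelled MS2 coat protein in RNA-MaP buffer (100 mM Tris pH 7.5, 80 mM KCl, 4 mM MgCl2), without ligand or with the indicated ligand. Median apparent KD per design.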

[1] = input ligand: theophylline 20 uM
[2] = input ligand: tryptophan 2.4 mM
[3] = input ligand: theophylline 2 mM

Row | Sequence | apparent KD of MS2 coat protein (input ligand: arginine 13.2 mM) | apparent KD of MS2 coat protein [1] | apparent KD of MS2 coat protein [2] | apparent KD of MS2 coat protein [3] | apparent KD of MS2 coat protein (input ligand: none)
1 | AUAUUAGACCUGGAUACCAGCGACAUGAGGAUCACCCAUGUAUGUGCAUCUGCCAUGAUAUGCCCUUGGCAGCCACCGAGGUCGU [CZZMULLIN] | 12.4 nM | 16 nM | 10.8 nM | – | –
2 | AGCACUGUGGCGGCCGCCACUACAUAUAGGGUGGUCAGGCCCAUAAUACAUGAGGAUCACCCAUGUAGGACCGGGCCUCAGUGCA [Omei Trp Exc B A v13] | 12.7 nM | 20 nM | – | 16.5 nM | –
3 | AUUAAUUUAUUUCUCAAUUUAAUUUCAGAAGGAGCGUGAUGUUUCACAGGUAGGUCGCUGUUUACAUGAGGAUCACCCAUGUUUU [JR_SSArginiA_Sub004] | 32 nM | 44.4 nM | 31.8 nM | 40.4 nM | 40.2 nM
4 | AGACUGUCUUCGGACAGUCCGGACAGCCCGCGAGGACCGGUACGGCCGCCACUCGCACGAGGAUCACCCGUGUGAGGCUGUCCGA [Omei Tryp A Exc A v2] | 9.87 nM | 17.2 nM | 14.5 nM | 16.4 nM | 13.4 nM
5 | CGAUAUAAGACGGCCGCCACUAUUAUGUAACAAAAUAAACAUGAGGAUCACCCAUGUACAUGGGAUAGGACCGGGUCCAAUAACG [#21 Same State - Tryptophan B] | 98.7 nM | 148 nM | – | 151 nM | –
6 | GGUCUCUGGAGCGAUACCAGCUUAAGUGUACUGGCCAGGUACAUGAGGAUCACCCAUGUAAGCCCUUGGCAGCGCUCCAGAGACC [#1 Exclusion - Theophylline B Attempt #14 (HarryS)] | 16.7 nM | 16.1 nM | 12.2 nM | 41.5 nM | 10.4 nM
7 | GGAAACCAAAGCGAUACCAGCGUACAUGAAAAGAGCGAAAACAUGAGGAUCACCCAUGUACGCCCUUGGCAGCGCAAAACCAAGG | 21.4 nM | 50.8 nM | 33.3 nM | 103 nM | 44.3 nM
8 | CCGCACAUGAGGAUCACCCAUGUCCGGGUUCGAGGACCGGUACGGCCGCCACUCGGACAUGUGCGCCCUUCAUGCACUGUAUAAA [Macetius] | 38.9 nM | 158 nM | – | 239 nM | –
9 | CUCUCAUGAACAUGAGGAUCACCCAUGUAACGAGGACCGGUACGGCCGCCACUCGAACGUGGAAACCAAUCGAGUGAGGUGGGAG [Tryp A Ex t5b] | 45.9 nM | 98.4 nM | 352 nM | 119 nM | 116 nM
10 | GAUAUGGAAACAUGUCAGAUCCUUACCGGUCGAGGACCGGUACGGCCGCCACUCGAAAACGAGGAACAUGAGGAUCACCCAUGUA [Ex Tryptophan A 20] | 32.7 nM | 50.4 nM | – | 49.5 nM | –
11 | UGUAUGUGAUCUGAUACCAGUCCAACUGGUAAAGCGUGAGGAUCACCCAUGCAAAAUUGGGACCCUUGGCAGCAGAUCGCAUACU | 48.6 nM | 290 nM | 185 nM | 208 nM | 337 nM
12 | CGGUAGGUAGGUCGAUAUCUACCCGUAGAAGGAGCGUAAGAAAAUACAGGUAGGUCGCUACGGAACAUGAGCAUCAGCCAUGUCC [SSArg A #12-Alt Ms2] | 13.9 nM | 20.6 nM | 12.6 nM | 12.1 nM | 11 nM
13 | GUUAUGGACCUGGAUACCAGCUGGUACGAGGGCGGUCUACAUGAGGAUCACCCAUGUGUCAGCCCUUGGCAGCCAGCAACCCGCU [Raquleer] | 10 nM | 12.6 nM | 9.92 nM | 11.9 nM | 9.39 nM
14 | UUGGGUAUGCGAAGGAGCGGGAAAUAUAUAUAUAUAAUCCUAACAUGAGGAUCACCCAUGUCCCAGGUAGGUCGCGCAUAUUUGG [12.J] | 40.6 nM | 88.9 nM | 67.8 nM | 106 nM | 62.9 nM
15 | ACCUACACGGAAACGUGUAGAAGUAAUGAUACCAGCAUGGAAACAUGCCCUUGGCAGCGUUACAUGAGGAUCACCCAUGUAUGUU [#01 Exclusion-TheophyllineA] | 16.4 nM | 19.9 nM | 15.4 nM | – | –
16 | GGUUACUCUACGGCCGCCACUGAUUAAUUAUAAUCCUGUACAUAAACAUGAGGAUCACCCAUGUACAGGACCGGGUAGUGUAACC [Tryptophan B 10] | 32.3 nM | 46.2 nM | – | 36.3 nM | –
17 | AAACAUGACAUGGAUACCAGACACAUGAGGAUCACCCAUGUUGAGGAUCACCCAUGUCCCGUCCCUUGGCAGCCAGCAUGAGGAU [Exclusion Theophylline B 2] | 8.96 nM | 11.6 nM | 8.83 nM | – | –
